According to patent US20210206882A1 (AB STUDIO, published 2021):
Residue numbers refer to the chain shown, from its start. Names may count otherwise. Blank lines part the entries; values can stand above or below the binder they belong to.

How the values were obtained:
CD55 = target: T1, CD55 (UniProt P08174 35-353, limits assumed); experiment: flow cytometry cell binding on MDA231 cells (Cy3 goat anti-human IgG); antibody concentration not given
T1 construct: In the internalization assay CD55 stood on MDA231 and SIHA cells
T1 sequence (looked up): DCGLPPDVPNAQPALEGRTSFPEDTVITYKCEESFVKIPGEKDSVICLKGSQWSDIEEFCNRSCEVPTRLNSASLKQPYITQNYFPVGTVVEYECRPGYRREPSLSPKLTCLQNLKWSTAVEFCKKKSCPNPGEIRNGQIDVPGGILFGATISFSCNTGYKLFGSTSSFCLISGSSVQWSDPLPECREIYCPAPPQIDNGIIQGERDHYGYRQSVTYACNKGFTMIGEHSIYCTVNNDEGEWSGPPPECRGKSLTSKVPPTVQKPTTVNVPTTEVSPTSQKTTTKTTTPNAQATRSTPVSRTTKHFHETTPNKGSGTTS

[1] = target: T2, CD20 (on CD20 positive Raji cells) (UniProt P11836 1-297, limits assumed); experiment: flow cytometry cell binding on CD20+ Raji cells, 3-fold titration 10 to 0.04 µg/ml and 0
T2 construct: whole, on cells; Raji is a human B cell line
T2 sequence (looked up): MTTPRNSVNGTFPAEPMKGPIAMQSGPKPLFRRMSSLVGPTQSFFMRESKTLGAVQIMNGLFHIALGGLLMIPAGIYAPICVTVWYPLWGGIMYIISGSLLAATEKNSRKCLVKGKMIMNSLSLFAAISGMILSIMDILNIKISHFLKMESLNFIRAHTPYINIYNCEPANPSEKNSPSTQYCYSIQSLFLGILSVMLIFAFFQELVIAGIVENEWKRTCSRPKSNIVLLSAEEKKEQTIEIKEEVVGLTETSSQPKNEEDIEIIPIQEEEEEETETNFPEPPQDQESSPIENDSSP

PD-L1 = PD-L1 (UniProt Q9NZQ7 19-290, limits assumed); experiment: flow cytometry cell binding on MDA231 cells (Cy3 goat anti-human IgG); antibody concentration not given
Sequence of PD-L1 (Q9NZQ7 19-290 limits assumed): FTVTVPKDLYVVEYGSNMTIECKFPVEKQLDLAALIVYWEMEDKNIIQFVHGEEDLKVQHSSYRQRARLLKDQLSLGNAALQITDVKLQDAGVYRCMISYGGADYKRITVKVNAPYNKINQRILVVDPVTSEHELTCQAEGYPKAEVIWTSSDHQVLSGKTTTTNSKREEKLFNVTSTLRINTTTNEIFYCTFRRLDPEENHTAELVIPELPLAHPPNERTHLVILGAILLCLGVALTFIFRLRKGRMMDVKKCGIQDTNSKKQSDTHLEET

binding result [1]: no binding (tested: 10 µg/ml)
B4: CD3 homodimer IgG containing the designed VH sequence (SEQ ID NO: 2) and the common VL sequence (SEQ ID NO: 3) (antibody, V domains shown)
VH: EVQLQESGAELARPGASVKMSCKASGYTFTSYTMHWVKQRPGEGLEWIGYINPSSGYTKYNQKFKDKATLTADKSSSTAYMELSSLTSEDSAVYYCARWQDYDVYFDYWGEGTTLTVSS
VL: QIVLSQSPAILSASPGEKVTMTCRASSSVSYIHWFQQKPGSSPKPWIYATSNLASGVPVRFSGSGSGTSYSLTISRVEAEDAATYYCQQWTSNPPTFGGGTKLEIKR
notes: Homodimer IgG with two VHb and two common VL; also called redesigned 12F6; antibody B

binding result (PD-L1): binds
B6: Anti-PD-L1 homodimer IgG (PD-L1 v1) containing the designed VH sequence (SEQ ID NO: 4) and the common VL sequence (SEQ ID NO: 6) (antibody, V domains shown)
VH: EVQLLESGGGLVEPGGSLRLSCAASGFTFSSYIMMWVRQAPGKGLEWVSSIYPSGGITFYADTVKGRFTISRDNSKNTLYLQMNSLRAEDTAVYYCARIKLGTVTTVDYWGEGTLVTVSS
VL: QSALTQPASVSGSPGQSITISCTGTSSDVGGYNYVSWYQQHPGKAPKLMIYDVSKRPSGVSNRFSGSKSGNTASLTISGLQAEDEADYYCSSYTSASTRIFGGGTKVTVLR
notes: Homodimer IgG; The heavy chain constant region of the homodimer is not specified; also called PD-L1 mono-dimer IgG; PDL1 homodimer version 1

binding result (CD55): binds
B7: Anti-CD55 homodimer IgG (CD55 v1) containing the designed VH sequence (SEQ ID NO: 5) and the common VL sequence (SEQ ID NO: 6) (antibody, V domains shown)
VH: QVKLQESGGGLVKPGGSLKLSCAASGFTFSGYGMSWIRQTPGKRLEWVATINSGGSYTYYSDSVKGRFTISRDNVKNTLYLQMSSLKSEDTAMYYCARRNGTLYYYLMDYWGRGTLVTVSS
VL: B6 VL
notes: Homodimer IgG; also called CD55 mono-dimer IgG; CD55 homodimer version 1

Second part, the binder before the results:

B1: parental anti-CD55 antibody (CD55 wt) (antibody, V domains shown)
VH: B7 VH with K13Q, G42D
VL: QSVLTQPPSASGSPGQSVTISCTGTSSDVGGYNYVSWYQQHPGKAPKFMIYDVSKRPSGVSNRFSGSKSGNTASLTISGVQAEDEADYYCSSYTSASTVIFGGGTKLTVL
notes: The variable domains come from a published CD55 scFv; also called CD55 parental Ab; anti-CD55 parental monoclonal antibody
binding result (CD55): binds

B2: parental anti-CD20 IgG (Rituximab) (antibody, V domains shown)
VH: QVQLQQPGAELVKPGASVKMSCKASGYTFTSYNMHWVKQTPGRGLEWIGAIYPGNGDTSYNQKFKGKATLTADKSSSTAYMQLSSLTSEDSAVYYCARSTYYGGDWYFNVWGAGTTVTVSA
VL: B4 VL
notes: tested as IgG; also called Parental CD20; CD20 parental Ab
EC50 (read off the curve) [1]: ~0.2 µg/mL

B3: parental anti-CD3 IgG (MAb 12F6) (antibody, V domains shown)
VH: B4 VH with E1Q, E6Q, E43Q, E82Q, E111Q
VL: B4 VL with I32M, F35Y, V59A, T91S, I105T
notes: tested as IgG; also called Parental CD3; CD3 parental Ab
binding result [1]: no binding (tested: 10 µg/ml)

B5: CD20 homodimer IgG containing the designed VH sequence (SEQ ID NO: 1) and the common VL sequence (SEQ ID NO: 3) (antibody, V domains shown)
VH: B2 VH with T87R
VL: B4 VL
notes: Homodimer IgG with two VHa and two common VL; VHa is the Rituximab VH with T83R (Kabat); also called redesigned Rituximab; antibody A
EC50 (read off the curve) [1]: ~0.4 µg/mL
